Assay [1] addresses recombinant SCM (Streptococcus canis M protein), mature wild type (Streptococcus canis (strain G361)). Description: SPR. For orientation: Surface plasmon resonance follows binding to a sensor surface in real time, without labels.
In assay [2] the target is SCM on the surface of S. canis strain G361 (Streptococcus canis (endogenous in strain G361)). As to the kind of experiment: radioligand binding; inhibition: S. canis G361 with iodinated full-length SCM after pre-incubation with non-iodinated SCM, N-225 or C-226 (5 µg in the text, 1 µM in the legend).
The target is the same in assay [3]. As to the kind of experiment: radioligand binding; iodinated protein (chloramine T) incubated with whole bacteria; percentage binding of totally used iodinated protein.

pKd: −log10 of the molar value.

Broadly, the pKd is −log10 of the Kd, conventionally taken in molar units. For SCM fragment N-225, in assay [1] (domain or fragment), the pKd is 7.23.

As to SCM fragment N-225 (domain or fragment), the percent of iodinated SCM bound to G361 with the unlabelled competitor in assay [2] was 6.8%.

“recombinant SCM (Streptococcus canis M protein), mature wild type”: in assay [1] (natural protein), the pKd was 5.39.

The substance “recombinant SCM (Streptococcus canis M protein), mature wild type (natural protein)” had a percent of the iodinated protein bound in assay [3] of 24.1%. In addition, the percent of iodinated SCM bound to G361 with the unlabelled competitor in assay [2] was found to be 4.4%.

The record behind these values is publication PMC6527014.
